Where no end group is shown, it is not given here.

The target of test [1] is T1, mouse REC114 residues 1–158 (REC114N) (mouse, UniProt Q9CWH4 1-158, selenomethionine derivative (in the crystals)).
T1 sequence (looked up): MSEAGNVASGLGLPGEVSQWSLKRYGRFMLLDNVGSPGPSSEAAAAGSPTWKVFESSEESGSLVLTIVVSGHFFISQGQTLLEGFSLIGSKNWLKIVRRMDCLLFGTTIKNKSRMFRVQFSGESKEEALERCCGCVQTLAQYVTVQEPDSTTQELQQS
The test is described as follows: crystal structure.

Test [2] has as its target T1, mouse REC114 residues 1–158 (REC114N). Briefly: pull-down.

As for SRESMQTIPHYLQIKEILQISKQELLPCHVMEQHWKFYVGRSHSEALLSW (domain or fragment, UniProt A0A140LI88 1808-1857, looked up, also: selenomethionine derivative) [mouse ANKRD31 residues 1808–1857 (ANKRD31C)], in test [1], the binding result is on record as “binds”. On to SRESMQTIPHYLQIKEILQISKQELLPCHVMEQHWKFYVGRSHSEALLSW (domain or fragment, mouse, UniProt A0A140LI88 1808-1857, looked up) [GST-tagged ANKRD31C], for which the binding result in test [2] is given as “binds”.
